1 protein from patent US20110217734A1 (UNIVERSITY OF ILLINOIS AT URBANA CHAMPAIGN, published 2011) can be followed below.

The data set concerns the molecule itself. As to the kind of experiment: size-exclusion chromatography, self-association. In general terms: Size exclusion chromatography separates by hydrodynamic size, large species first.

B1: RhiG-C-His (enzyme)
chain: MKMQLIDCTLRDGGNFNNWFFSAEDINQIILHLDKANVNIIEIGYIGGSGSNKEKSVGSLANCTPELLEQLPKTIHSHLAAMVVPSVCELHLLDNLNPQLIPWIRVASYPHNAEDALPYIEYLKNRGFHVSFNVMAASYIEEKDMAELAKKSHVFGADVFYMADSFGNLTPDGVRKRVAAAFDQADCPVGFHGHNNLGLAFTNALEAMDAGATFIDTSLCGMARGAGNLPTEQFVSAIHHWDKFGDIPYKLHPILTAAEYVLSSILSSPMKISTPEIISGISNIHYYFYDLVISKCREVNLDPLQVSTLLGQTLPKRVDMSYIESVIDQNFRQESAK
notes: Recombinant protein expressed in E. coli BL21(DE3), 38.7 kDa per chain; Size-exclusion chromatography gave a native MW of about 75 kDa (homodimer); also called RhiG purified as a C-terminal fusion with a hexahistidine tag; not shown: C-terminal hexahistidine tag from the pET26b vector
For the protein B1, the binding result is “binds”.
